Laboratory results as given in US20140328762A1, “Fluorogenic Peptide Probes and Assays” (priority 2011, published 2014).
Each block holds one binder with its values, some of them ahead of it.

Assays:
E3 peptide [1] = biological target: T1, E3 peptide; experiment: Kd of the beacon (fluorescence) compared with Kd of unlabeled K3-b1b3 (CD), both for E3
T1 chain: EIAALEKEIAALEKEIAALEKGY

E3 peptide [2] = biological target: T1, E3 peptide; experiment: fluorescence at 580 nm, 100 nM beacon, 10 µM partner (FIG. 14A, column E)
E3 peptide [3] = biological target: T1, E3 peptide; experiment: fluorescence titration of 1 µM beacon with E3 peptide, curve fitting
E3 peptide [4] = biological target: T1, E3 peptide; experiment: fluorescence titration of 10 nM beacon with E3 peptide, curve fitting
[5] = biological target: unlabeled JunLZ-Lb1b4 [MBP: P0AEX9]; experiment: fluorescence at 580 nm, 100 nM beacon, 10 µM partner (FIG. 14A, column B)
E3 peptide [6] = biological target: T1, E3 peptide; experiment: fluorescence titration of 1 µM beacon with E3 peptide
[7] = biological target: FosLZ (MBP-FosLZ, fusion protein of MBP and the cFos leucine zipper) [MBP: P0AEX9]; experiment: fluorescence at 580 nm, 100 nM beacon, 10 µM partner (FIG. 14A, column C)
[8] = biological target: unlabeled GCN4 244 (yeast); experiment: fluorescence at 580 nm, 100 nM beacon, 10 µM partner (FIG. 14A, column D)
[9] = biological target: T2, full length human XRCC4 protein (recombinant, E. coli) (human), Q13426; experiment: absorbance spectra, 1 µM beacon, 40 µM protein; beacon only 0.40 (FIG. 7)
[10] = biological target: truncated XRCC4 protein that does not have DNA ligase IV binding site (recombinant, E. coli) (human), Q13426; experiment: as above
[11] = biological target: T2, full length human XRCC4 protein …; experiment: fluorescence of 2 µM beacon with increasing concentration of XRCC4 (FIG. 8)
E3 peptide [12] = biological target: T1, E3 peptide; experiment: CD spectra analysis, curve fitting (data not shown)

T2 sequence (Q13426 whole entry, the tested form may be a part): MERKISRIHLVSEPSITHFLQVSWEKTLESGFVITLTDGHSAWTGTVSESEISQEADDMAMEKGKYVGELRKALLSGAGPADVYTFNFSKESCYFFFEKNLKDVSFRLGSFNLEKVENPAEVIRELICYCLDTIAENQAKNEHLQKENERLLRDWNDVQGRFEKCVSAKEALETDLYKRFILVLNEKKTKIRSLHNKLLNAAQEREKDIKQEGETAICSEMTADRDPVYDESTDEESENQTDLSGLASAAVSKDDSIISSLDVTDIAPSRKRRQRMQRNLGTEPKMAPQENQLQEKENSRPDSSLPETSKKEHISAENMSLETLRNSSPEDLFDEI
Chain of truncated XRCC4 protein that does not have DNA ligase IV binding site (recombinant, E. coli) (human), Q13426 (Q13426 2-150 limits assumed): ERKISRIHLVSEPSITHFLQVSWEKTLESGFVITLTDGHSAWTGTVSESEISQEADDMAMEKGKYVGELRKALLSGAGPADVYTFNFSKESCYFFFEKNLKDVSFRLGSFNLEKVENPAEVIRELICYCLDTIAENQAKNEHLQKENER

fold decrease of binding affinity against unlabeled K3-b1b3 (E3 peptide [1]): 17 fold
fluorescence enhancement over beacon only (E3 peptide [2]): 7 fold
Kd (E3 peptide [3]): 766 nM
Kd (E3 peptide [4]): 738 nM
fluorescence enhancement over beacon only [5]: 1.5 fold
maximum fluorescence enhancement (E3 peptide [6]): 12 fold
fluorescence enhancement over beacon only [7]: 1.6 fold
fluorescence enhancement over beacon only [8]: 1.2 fold
B1: K3-b1b3 beacon (peptide)
peptide: KICALKAKIAALKAKICALKAGY
modifications: not checked

A550/A520 ratio [9]: 0.46
A550/A520 ratio [10]: 0.38
fluorescence enhancement [11]: 9.5 fold
B2: LigIV-C1 peptide beacon (peptide)
peptide: CREYDSYGDSYFIDTDLNQLKEVFSGIKCG
modifications: not checked

Kd (E3 peptide [12]): 45 nM
B3: K3-b1b3 peptide (unlabeled) (peptide)
peptide: KICALKAKIAALKAKICALKAGY
modifications: not checked
